Data reported in paper PMC10950897 (Nature Communications, 2024).
Where no end group is shown, it is not given here. The star is where a group is joined. Biotin = O=C1N[C@H]2[C@H](CS[C@H]2CCCCC(=O)*)N1

B1: VBM (ATXN3, aa275-295) peptide (peptide)
peptide: Biotin-NLTSEELRKRREAYFEKQQQK
notes: ATXN3 (ataxin-3), human, VBM motif, aa275-295; also called peptide spanning the VBM in ATXN3; source: synthetic peptide, bought: GenScript
B2: VIM (SVIP, aa14-39) peptide (peptide)
peptide: Biotin-PTPDLEEKRAKLAEAAERRQKEAAS
notes: SVIP, human, VIM motif; also called peptide spanning the VIM in SVIP; source: synthetic peptide, bought: GenScript
B3: Strep-HA-VCF1 WT (natural protein)
chain: not shown
notes: VCF1 (FAM104A), human, isoform 1, 186 amino acids; cDNA inserted into pcDNA5/FRT/TO/Strep-HA; also called recombinant VCF1; full-length VCF1; source: HEK293-EBNA1-6E, transfected, purified (Strep-Tactin, Superose 6)

Tests used:
His6-p97 WT [1] = biological target: T1, His6-p97 WT (human, UniProt P55072 1-806); test: pull-down; biotinylated VRM, VIM or VBM peptides immobilized on StrepTactin agarose, incubated with purified WT or mutant His6-p97, washed extensively in RIPA buffer, immunoblot; settings: both partners purified
T1 construct: p97/VCP, human; from plasmid pET15b-His6-p97; hexamer by mass photometry (535 kDa); also called recombinant p97; purified p97; source: E. coli BL21(DE3), purified (Ni-NTA, Superose 6)
T1 sequence (P55072 whole entry): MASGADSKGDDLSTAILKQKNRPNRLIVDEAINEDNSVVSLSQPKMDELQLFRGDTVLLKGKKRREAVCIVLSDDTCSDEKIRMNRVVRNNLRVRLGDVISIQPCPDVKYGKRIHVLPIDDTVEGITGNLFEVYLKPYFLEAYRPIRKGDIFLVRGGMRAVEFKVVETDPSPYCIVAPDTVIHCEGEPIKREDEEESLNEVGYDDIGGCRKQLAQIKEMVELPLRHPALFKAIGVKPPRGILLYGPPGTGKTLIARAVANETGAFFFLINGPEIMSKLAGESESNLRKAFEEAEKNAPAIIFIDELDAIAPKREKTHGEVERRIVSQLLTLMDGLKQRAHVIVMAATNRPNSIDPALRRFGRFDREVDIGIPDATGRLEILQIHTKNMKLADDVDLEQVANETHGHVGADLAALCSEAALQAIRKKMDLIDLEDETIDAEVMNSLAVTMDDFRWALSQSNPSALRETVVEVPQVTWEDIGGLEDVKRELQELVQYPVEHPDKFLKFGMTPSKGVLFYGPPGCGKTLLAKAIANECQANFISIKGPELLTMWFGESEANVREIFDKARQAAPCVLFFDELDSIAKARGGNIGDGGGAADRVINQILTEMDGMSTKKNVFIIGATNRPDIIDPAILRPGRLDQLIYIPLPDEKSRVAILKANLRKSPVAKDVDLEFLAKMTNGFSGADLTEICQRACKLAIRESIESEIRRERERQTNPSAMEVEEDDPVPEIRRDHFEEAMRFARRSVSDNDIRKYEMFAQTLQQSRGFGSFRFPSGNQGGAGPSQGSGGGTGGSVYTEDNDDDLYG

His6-p97 WT [2] = biological target: T1, His6-p97 WT; test: SPR; Biacore T200, 25 C, His6-p97 amine-coupled to CM5 chip (~400 RU), Strep-HA-VCF1 full-length as analyte up to 100 nM, PBS-P with 0.5 mM TCEP, 1:1 model; settings: both partners purified

Binder	binding result (His6-p97 WT [1])	Kd (His6-p97 WT [2]) [nM]
B1	binds	
B2	binds	
B3		~10
